These results are taken from IntAct's records for PubMed 26068852.

The labels stand for the following.
B1: TRAF-interacting protein with FHA domain-containing protein A (Homo sapiens), Q96CG3 (parent)
chain: MTSFEDADTEETVTCLQMTVYHPGQLQCGIFQSISFNREKLPSSEVVKFGRNSNICHYTFQDKQVSRVQFSLQLFKKFNSSVLSFEIKNMSKKTNLIVDSRELGYLNKMDLPYRCMVRFGEYQFLMEKEDGESLEFFETQFILSPRSLLQENNWPPHRPIPEYGTYSLCSSQSSSPTEMDENES
partner: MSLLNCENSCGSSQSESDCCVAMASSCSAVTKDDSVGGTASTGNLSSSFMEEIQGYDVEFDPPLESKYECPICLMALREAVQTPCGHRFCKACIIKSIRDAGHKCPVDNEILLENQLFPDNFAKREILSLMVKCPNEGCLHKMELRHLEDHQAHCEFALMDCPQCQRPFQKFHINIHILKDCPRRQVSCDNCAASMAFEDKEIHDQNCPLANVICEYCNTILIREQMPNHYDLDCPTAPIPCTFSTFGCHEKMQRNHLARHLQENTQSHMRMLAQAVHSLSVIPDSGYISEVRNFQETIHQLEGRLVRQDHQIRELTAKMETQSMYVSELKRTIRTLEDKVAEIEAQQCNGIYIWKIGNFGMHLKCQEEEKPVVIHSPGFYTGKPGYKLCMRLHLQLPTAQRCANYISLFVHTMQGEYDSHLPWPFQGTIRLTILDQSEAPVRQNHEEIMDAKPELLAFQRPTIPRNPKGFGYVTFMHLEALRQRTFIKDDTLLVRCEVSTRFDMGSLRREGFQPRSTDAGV

In the test the parent is B1. As to conditions: with traf6_human TRAF6, Q9Y4K3.
Regarding MTSFEDADTEETVTCLQMTVYHPGQLQCGIFQSISFNREKLPSSEVVKFGRNSNICHYTFQDKQVSRVQFSLQLFKKFNSSVLSFEIKNMSKKTNLIVDSRELGYLNKMDLPYRCMVRFGEYQFLMEKEDGESLEFFETQFILSPRSLLQENNWPPHRPIPEYGTYSLCSSQSSSPTAMDENES [E178A], the “effect of a mutation on the interaction” value was “disrupting interaction strength”.

Take MTSFEDADAEETVTCLQMTVYHPGQLQCGIFQSISFNREKLPSSEVVKFGRNSNICHYTFQDKQVSRVQFSLQLFKKFNSSVLSFEIKNMSKKTNLIVDSRELGYLNKMDLPYRCMVRFGEYQFLMEKEDGESLEFFETQFILSPRSLLQENNWPPHRPIPEYGTYSLCSSQSSSPTEMDENES [T9A]: the “effect of a mutation on the interaction” value is “disrupting interaction strength”.

With MTSFEDADTEETVTCLQMTVYHPGQLQCGIFQSISFNREKLPSSEVVKFERNSNICHYTFQDKQVARVQFSLQLFKKFNSSVLSFEIKNMSKKTNLIVDSRELGYLNKMDLPYRCMVRFGEYQFLMEKEDGESLEFFETQFILSPRSLLQENNWPPHRPIPEYGTYSLCSSQSSSPTEMDENES [G50E;S66A], the “effect of a mutation on the interaction” value was “disrupting interaction strength”.
